# Source: patent CN101443359A (GENENTECH INC, dated 2009)
# T1: 重组小鼠EGFL7蛋白 (mouse, UniProt Q9QXT5 22-275, limits assumed)
# T1 construct: also called mEGFL7; 带polyHis标签的EGFL7
# T1 sequence (looked up): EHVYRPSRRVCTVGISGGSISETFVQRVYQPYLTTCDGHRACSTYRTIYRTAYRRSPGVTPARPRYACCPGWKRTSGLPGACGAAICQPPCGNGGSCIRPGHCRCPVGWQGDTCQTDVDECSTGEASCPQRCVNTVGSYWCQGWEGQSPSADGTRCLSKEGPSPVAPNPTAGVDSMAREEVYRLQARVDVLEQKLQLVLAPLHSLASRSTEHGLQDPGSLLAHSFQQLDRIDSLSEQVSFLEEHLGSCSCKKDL
# T2: 重组人EGFL7蛋白 (human, UniProt Q9UHF1 24-273, limits assumed)
# T2 construct: also called hEGFL7; 带polyHis标签的EGFL7
# T2 sequence (looked up): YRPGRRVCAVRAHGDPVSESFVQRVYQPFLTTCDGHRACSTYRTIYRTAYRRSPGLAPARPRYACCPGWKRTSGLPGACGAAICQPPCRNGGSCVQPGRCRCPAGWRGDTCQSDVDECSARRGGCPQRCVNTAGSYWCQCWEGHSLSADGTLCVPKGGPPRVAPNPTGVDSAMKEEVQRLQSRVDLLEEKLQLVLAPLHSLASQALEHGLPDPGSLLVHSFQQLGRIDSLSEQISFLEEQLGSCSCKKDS
# Legend:
# 重组小鼠EGFL7蛋白 = biological target: T1, 重组小鼠EGFL7蛋白; experiment: SPR, BIAcore 3000, room temperature, polyHis-tagged EGFL7 injected, 1:1 model, mAb stock in 50mM Tris/125mM NaCl
# 重组人EGFL7蛋白 = biological target: T2, 重组人EGFL7蛋白; experiment: as above
binder,measurement,setting,value
"抗EGFL7鼠单抗4F11.1.8 (antibody, V domains shown, Hybridoma deposit PTA-7343) VH: QIQLVQSGPELKKPGETVKISCKASGHTFTTYGMSWVKQAPGKGLKWMGWINTHSGVPTYADDFKGRFAFSLETSASTAHLQINNLKNEDTATYFCARLGSSAVDYWGQGTTVTVSS VL: DIVLTQSPASLAVSLGQRATISCKASQSVDYDGDSYMSWYQQKPGQPPKLLIYGASNLESGIPARFSGSGSGTDFTLNIHPVEEEDAATYYCQQNNEDPYTFGGGTKVEIKR",Kd,重组小鼠EGFL7蛋白,756 pM
same,Kd,重组人EGFL7蛋白,473 pM
